Key:
[1] = biological target: T1, N-acetyl-L-glutamate kinase from Synechocystis sp. PCC 6803 with an N-terminal His6 tag (Synechocystis sp. PCC 6803) (UniProt P73326)
T1 sequence: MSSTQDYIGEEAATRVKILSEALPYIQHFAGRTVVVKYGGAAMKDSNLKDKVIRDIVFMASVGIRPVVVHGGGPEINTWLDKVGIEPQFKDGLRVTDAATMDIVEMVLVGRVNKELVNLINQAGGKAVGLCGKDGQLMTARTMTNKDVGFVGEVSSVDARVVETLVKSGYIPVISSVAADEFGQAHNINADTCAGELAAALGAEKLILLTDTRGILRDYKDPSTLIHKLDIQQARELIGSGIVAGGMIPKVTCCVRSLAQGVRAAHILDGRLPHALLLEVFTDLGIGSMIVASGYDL

[2] = biological target: T1, N-acetyl-L-glutamate kinase from Synechocystis sp. PCC 6803 with an N-terminal His6 tag (Synechocystis sp. PCC 6803); remark: listed apart in the source

PII protein from the red alga Porphyra purpurea with a C-terminal Strep-tag II, sequence (P51254 whole entry): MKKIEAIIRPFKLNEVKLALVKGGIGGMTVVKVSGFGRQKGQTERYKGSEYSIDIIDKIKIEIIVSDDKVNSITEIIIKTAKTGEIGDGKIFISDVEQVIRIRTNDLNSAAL

PII protein from the red alga Porphyra purpurea with a C-terminal Strep-tag II (from UniProt P51254 1-112) (natural protein)
relief of ScNAGK from feedback inhibition by arginine: rise of the IC50 for arginine on addition of PpPII (free ScNAGK: IC50 6.2 µM), coupled NAGK assay, without glutamine [1]: 4 fold
catalytic efficiency (Kcat/Km) of ScNAGK in the coupled NAGK activity assay, PpPII-complexed (free ScNAGK: 0.55 × 10^3 s^−1M^−1); NAG varied at 10 mM ATP [2]: 2360 s^−1M^−1

Source: publication PMC5768801, “The PII signaling protein from red algae represents an evolutionary link between cyanobacterial and Chloroplastida PII proteins” (Scientific Reports, 2018)
